The values that follow come from patent publication US8613927B2, “High affinity human antibodies to human nerve growth factor” (Regeneron Pharmaceuticals, Inc., priority 2007, dated 2013).

Like-named read-outs stand apart in the source and are kept apart here.

Assay [1] concerns the target rat NGF (rNGF) (Rattus norvegicus, UniProt P25427). As to the kind of experiment: BIACORE binding affinity to rat NGF. The protocol: Antigen binding affinities of the antibodies for human NGF were determined by surface kinetics using a real-time biosensor surface plasmon resonance assay (BIACORE™). Antibodies were captured on either a goat, anti-human or anti-mouse IgG polyclonal antibody surface created by direct amine coupling of the capture antibody to a BIACORE™ chip. Various concentrations of human NGF were injected over the captured antibody surfaces while the association of the antigen to the antibody and the dissociation of the bound complex were monitored in real time. Kinetic analysis was performed to obtain the equilibrium dissociation constant (KD) and dissociation rate constant, and the latter was used to calculate the antigen/antibody complex dissociation t1/2 (Table 1).
Human NGF (NGF) is highly homologous in amino acid sequence to mouse NGF (mNGF) and rat NGF (rNGF) with about 90% identity. The binding affinities of the antibodies to both mNGF and rNGF were determined as described above.
The binding affinity of selected purified anti-NGF antibodies to mNGF and rNGF were also determined (Table 6).

Assay [2] concerns the target T1, Human NGF (PC12 cells, rat adrenal medulla cell line) (Homo sapiens, UniProt P01138, DEL136-138/DEL208-209).
T1 construct: host or cells: NGF added exogenously; receptors endogenous in PC12 cells
Kind of assay: PC12 SRE-luciferase assay of NGF signaling through p75 and TrkA. It counts as cell-based. How it is done:
(§1) The ability of NGF antibodies to block NGF signaling p75 and TrkA receptor-mediated activity was also measured in vitro using a rat adrenal medulla cell line, PC12, which express both receptors endogenously (Urdiales et al. 1998 J. Neuroscience 18(17):6767-6775). Briefly, PC12 cells were stably transfected with a reporter plasmid containing a serum response element (SRE) linked to a luciferase gene. The transfected cells were resuspended at approximately 2.5×10^5 cells per ml and plated at 50,000 cells per well in a 96-well tissue culture plate in Opti-MEM media overnight. The purified antibody proteins were serially diluted in medium (DMEM plus 0.1% BSA) and added to the plated cells at concentrations ranging from 0 to 100 nM. Human NGF was added to the wells to a final concentration of 12.5 pM. Luciferase activity was measured after incubating the cells for 6 hours at 37° C. in a humidified 7.5% CO2 incubator using BRIGHT GLOW™ luciferase assay system (Promega). Control mAb=RN624.

The target of assay [3] is T2, NT-3 signaling through p75 and TrkA in PC12 cell line (Homo sapiens, UniProt P20783).
T2 construct: host or cells: NT-3 added exogenously; receptors endogenous in PC12 cells
T2 sequence (P20783 139-257): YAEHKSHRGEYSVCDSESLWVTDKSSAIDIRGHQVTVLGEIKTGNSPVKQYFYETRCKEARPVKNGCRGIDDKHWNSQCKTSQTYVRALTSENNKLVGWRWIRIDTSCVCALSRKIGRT
Kind of assay: PC12 SRE-luciferase assay with 75 nM NT-3 instead of NGF. The class given is cell-based. The following applies: read-out: IC50, blocking of NT-3 signaling. How it is done: as §1, with “Human NGF was added to the wells to a final concentration of 12.5 pM.” left out

The target in assay [4] is Human NGF binding to human p75-hFc (Homo sapiens, UniProt P01138, DEL136-138/DEL208-209). Kind of assay: BIACORE receptor blocking assay, free NGF bound to p75-hFc. The following applies: percentage free NGF bound; NGF 10-25 nM with molar excess of antibody; NGF alone = 100%. An excerpt: To identify blocking antibodies, a receptor blocking assay was designed using a BIACORE™ 3000 instrument. Recombinant human TrkA-hFc and human p75-hFc proteins were amine-coupled to a CM5 chip to a density of about 5000-6000 RU.
Human NGF binding to human p75-hFc, sequence (P01138 with tags, fused parts or gaps DEL136-138/DEL208-209): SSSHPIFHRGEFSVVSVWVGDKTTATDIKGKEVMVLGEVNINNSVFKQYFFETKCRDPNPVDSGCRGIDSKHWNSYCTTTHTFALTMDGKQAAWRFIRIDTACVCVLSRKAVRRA

Assay [5] deals with T3, human NT-3 (Homo sapiens, UniProt P20783).
T3 sequence (P20783 139-257): T2 sequence (P20783 139-257)
Kind of assay: BIACORE cross-reactivity test, NT-3. It counts as binding. The conditions noted are these: NT-3 1.25 nM to 40 nM; purified antibodies. The protocol:
The anti-NGF antibodies were examined for binding cross-reactivity with human NT-3. Briefly, goat anti-human IgG polyclonal antibody was chemically linked to a CM5 chip. Anti-NGF monoclonal antibodies were injected forming a surface of about 50 to 900 RU of immobilized antibody through the interaction with the chip coupled polyclonal antibodies. […] Both association and dissociation phases were monitored and data were analyzed. Results are shown in Table 3 (NB=no binding activity observed).

Assay [6] has as its target T4, NT-3 signaling through TrkC (engineered HEK293 cell line expressing TrkC) (Homo sapiens, UniProt P20783).
T4 construct: host or cells: NT-3 added exogenously; partner TrkC made by an engineered HEK293 line
T4 sequence (P20783 139-257): T2 sequence (P20783 139-257)
As to the kind of experiment: HEK293/TrkC SRE-luciferase bioassay of NT-3 signaling. The following applies: 15 pM NT-3; 6 hours; read-out: IC50, inhibition of NT-3-mediated luciferase activity. The class given is cell-based. How it is done:
An engineered HEK293 cell line expressing TrkC was transfected with a SRE-luciferase reporter plasmid. NT-3 drives luciferase expression in a 6-hour assay. […] The engineered HEK293 cell line was seeded onto 96-well plates at 1×10^4 cells/well in serum-free media and incubated overnight at 37° C., 5% CO2. […] The cells were then incubated at 37° C., 5% CO2 for 6 hours. Luciferase activity was determined by adding an equal well volume of BRIGHT GLOW™ (Promega).

For assay [7], the system named is circulating levels of neurotrophin-3 (NT-3). Kind of assay: Serum NT-3 sandwich ELISA, mice of post incision pain model. It counts as in vivo, mouse. The following applies: day 4, 25 mg/kg i.p., mean±std dev, limit of detection ~40 pg/ml. An excerpt: On day 4, after the behavioral tests from post incision pain model were completed, the mice's sera were collected and analyzed for circulating levels of neurotrophin-3 (NT-3) using a sandwich ELISA. The limit of detection (˜40 pg/ml) was defined as two standard deviations (2σ) above background with a minimum of five NT-3 standards to define the response to concentration curve.

rat NGF (rNGF), sequence (P25427 122-241): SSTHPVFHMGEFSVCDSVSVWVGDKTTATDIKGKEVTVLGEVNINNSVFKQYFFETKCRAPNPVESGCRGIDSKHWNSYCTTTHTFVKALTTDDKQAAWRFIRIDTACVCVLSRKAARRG
T1 sequence (P01138 with tags, fused parts or gaps DEL136-138/DEL208-209): as the sequence (P01138 with tags, fused parts or gaps DEL136-138/DEL208-209) above

On to tanezumab [RN624], for which the Kd worked out at 0.0015 nM in assay [1] (Table 5); 0.00151 nM in assay [1] (Table 6, selected purified antibodies); 1.1 nM in assay [5]. Besides, the IC50 in assay [2] (Table 10, 12.5 pM human NGF, 6 hours, read-out: PC12 IC50) is 0.021 nM; in assay [2] (Table 11, selected purified antibodies, PC12 luciferase, read-out: IC50), 0.0049 nM; in assay [3], about 105 nM; in assay [6] it was 150 to 200 nM. Moreover, the “% Binding p75-hFc” value in assay [4] amounted to 16%. Also, the “Serum NT-3” value in assay [7] is 172 ± 114 pg/mL.
